Data from article PMC5398634.

Target: Erwinia amylovora AmyR (Erwinia amylovora strain CFBP1430)
Experiment: crystal structure; native AmyR at 8 mg/ml, sitting-drop vapour diffusion, 0.1 M sodium cacodylate pH 6.9, 0.2 M magnesium chloride, 46% (v/v) PEG 200, 293 K; 1.95 Å, space group P 2(1)2(1)2; homodimer in the asymmetric unit

Q: For “Erwinia amylovora AmyR (natural protein)”, which stoichiometry N is on record?
A: Its stoichiometry N is 2.
